To fix the notation:
B1: I-1780 (peptide)
peptide: Ac-[αAllylPro]D[tBuAla][S5]DD[Aib]AF[R5]A[3Thi][Bta][S5]A-NH2
modifications: staple (positions not given here); not fully specified; printed as Ac-PL3-Asp-Npg-S5-Asp-Asp-Aib-Ala-Phe-R5-Ala-3Thi-BztA-S5-Ala-NH2; also: staple pairing among PL3 1, S5 4, R5 10, S5 14 not given here
B2: I-1778 (peptide)
peptide: Ac-[αAllylPro]D[tBuAla][S5]DDAAF[R5]A[3Thi][Bta][S5]A-NH2
modifications: staple (positions not given here); not fully specified; printed as Ac-PL3-Asp-Npg-S5-Asp-Asp-Ala-Ala-Phe-R5-Ala-3Thi-BztA-S5-Ala-NH2; also: staple pairing among PL3 1, S5 4, R5 10, S5 14 not given here
B3: I-1781 (peptide)
peptide: Ac-[αAllylPro]D[tBuAla][S5]DD[Aib]AF[R5]A[3Thi][Bta][S5]A-NH2
modifications: staple (positions not given here); not fully specified; printed as Ac-PL3-Asp-Npg-S5-Asp-Asp-Aib-Ala-Phe-R5-Ala-3Thi-BztA-S5-Ala-NH2; also: staple pairing among PL3 1, S5 4, R5 10, S5 14 not given here

Starred links: 1 amine or outer side, 2 acyl side, 3 side chain; linkers in the order of their positions; H or OH if unused. Positions of bridges follow the written chain, without caps; N, C: chain ends. Non-standard residues stand in square brackets, D forms with d. Primed or numbered codes have the meaning given here. PyrS2″ = (S)-3-amino-1-((pent-4-en-1-yloxy)carbonyl)pyrrolidine-3-carboxylic acid (stapling residue), C=CCCCOC(=O)N1CC[C@@](N[*:1])(C(=O)[*:2])C1; B5(4) = 2,2-bis(4-pentenyl)glycine = 2-amino-2-(pent-4-en-1-yl)hept-6-enoic acid (stitching residue), C=CCCCC(CCCC=C)(N[*:1])C(=O)[*:2]; TfeGA = (S)-2-amino-3-((carboxymethyl)(2,2,2-trifluoroethyl)amino)propanoic acid, O=C([C@H](CN(CC(=O)[*:3])CC(F)(F)F)N[*:1])[*:2]; PyrS2 = (S)-3-amino-1-((pent-4-en-1-yloxy)carbonyl)pyrrolidine-3-carboxylic acid, C=CCCCOC(=O)N1CC[C@@](N[*:1])(C(=O)[*:2])C1; B5(19) = 2-amino-2-(pent-4-en-1-yl)hept-6-enoic acid (bis(4-pentenyl)glycine), C=CCCCC(CCCC=C)(N[*:1])C(=O)[*:2]; MePpzAsn = (S)-2-amino-4-(4-methylpiperazin-1-yl)-4-oxobutanoic acid, CN1CCN(C(=O)C[C@H](N[*:1])C(=O)[*:2])CC1; F2PipNva = (S)-2-amino-5-(4,4-difluoropiperidin-1-yl)pentanoic acid, O=C([C@H](CCCN1CCC(F)(F)CC1)N[*:1])[*:2]; B5(25) = 2-amino-2-(pent-4-en-1-yl)hept-6-enoic acid (stitching residue), C=CCCCC(CCCC=C)(N[*:1])C(=O)[*:2]; MorphAsn = (S)-2-amino-4-morpholino-4-oxobutanoic acid, O=C(C[C@H](N[*:1])C(=O)[*:2])N1CCOCC1; B5(3) = 2,2-bis(4-pentenyl)glycine (stitching residue), C=CCCCC(CCCC=C)(N[*:1])C(=O)[*:2]; B5 = 2-amino-2-(pent-4-en-1-yl)hept-6-enoic acid, C=CCCCC(CCCC=C)(N[*:1])C(=O)[*:2]; Nva(5-morpholino) = N[C@@H](CCCN1CCOCC1)C(=O)O; Phe(3-COOH) = N[C@@H](Cc1cccc(C(=O)O)c1)C(=O)O; 2F3MeF = Cc1cccc(C[C@H](N[*:1])C(=O)[*:2])c1F; Phe(2-Cl) = N[C@@H](Cc1ccccc1Cl)C(=O)O; Bta = N[C@@H](Cc1csc2ccccc12)C(=O)O; Lys(iPr) = CC(C)NCCCC[C@H](N)C(=O)O; hTyr = N[C@@H](CCc1ccc(O)cc1)C(=O)O; αAllylPro = C=CC[C@@]1(C(=O)O)CCCN1; tBuAla = CC(C)(C)C[C@H](N)C(=O)O; 3Thi = N[C@@H](Cc1ccsc1)C(=O)O; R5 = C=CCCC[C@@](C)(N)C(=O)O; hLeu = CC(C)CC[C@H](N)C(=O)O; S5 = C=CCCC[C@](C)(N)C(=O)O; hSer = N[C@@H](CCO)C(=O)O; Nle = CCCC[C@H](N)C(=O)O; Aib = CC(C)(N)C(=O)O

In general, IC50 refers to the concentration needed to halve the response being measured. The low end stands for greater potency, the high end for weaker potency. Usually EC50 stands for the concentration that produces a half-maximal response.

The first assay concerns the target full-length beta-Catenin (Uniprot ID P35222) (Homo sapiens (Human)) (UniProt P35222). The assay is described as follows: fluorescence polarization competition against 5FAM-TCF4 10-53 on full-length beta-catenin. (Fluorescence polarisation rises when a labelled molecule tumbles more slowly, as on binding a larger partner.)
With Ac-[αAllylPro]D[tBuAla][B5(4)]NTAAF[Nle][PyrS2″][3Thi][Bta]Q-NH2 (staple 1-4, 4-11) [I-1619], the IC50 was 1290 nM.

Molecule Ac-[αAllylPro]N[tBuAla][B5(4)]DT[Lys(iPr)]ASL[PyrS2]F[Bta]Q-NH2 (staple 1-4, 4-11) [I-1597] registered an IC50 of 6990 nM.

For B1, the IC50 came out at 4190 nM.

For Ac-[αAllylPro]D[tBuAla][B5(3)]D[TfeGA]AAFT[PyrS2″][Phe(2-Cl)][Bta][MePpzAsn]-NH2 (staple 1-4, 4-11) [I-1611], the IC50 came out at 10 nM.

For Ac-[αAllylPro]N[tBuAla][B5(4)]DT[Lys(iPr)]AFF[PyrS2]F[Bta]Q-NH2 (staple 1-4, 4-11) [I-1599], the IC50 turned out to be 1080 nM.

On to Ac-[αAllylPro]D[tBuAla][B5(3)]D[TfeGA]AAFT[PyrS2″][Phe(2-Cl)][Bta][Lys(iPr)]-NH2 (staple 1-4, 4-11) [I-1615], for which the IC50 is 9 nM.

Regarding Ac-[αAllylPro]D[tBuAla][B5(19)]DYAAFL[PyrS2][3Thi][Bta]Q-NH2 (staple 1-4, 4-11) [I-1784], the IC50 turned out to be 528 nM.

With Ac-[αAllylPro]D[tBuAla][B5(3)]D[Phe(3-COOH)]AAFL[PyrS2][2F3MeF][Bta][Nva(5-morpholino)]-NH2 (staple 1-4, 4-11) [I-1610], the IC50 was 19 nM.

Ac-[αAllylPro]N[tBuAla][B5(4)]DT[Lys(iPr)]AFW[PyrS2]F[Bta]Q-NH2 (staple 1-4, 4-11) [I-1600] gave an IC50 of 4290 nM.

Molecule Ac-[αAllylPro]D[tBuAla][B5(19)]D[hTyr]AAF[hSer][PyrS2][3Thi][Bta]Q-NH2 (staple 1-4, 4-11) [I-1786] displayed an IC50 of 42 nM.

As to Ac-[αAllylPro]D[tBuAla][B5(4)]NTAAFL[PyrS2″][3Thi][Bta]Q-NH2 (staple 1-4, 4-11) [I-1618], the IC50 worked out at 10000 nM.

The molecule Ac-[αAllylPro]N[tBuAla][B5(4)]DT[Lys(iPr)]AFS[PyrS2]F[Bta]Q-NH2 (staple 1-4, 4-11) [I-1601] registered an IC50 of 2020 nM.

The molecule Ac-[αAllylPro]N[tBuAla][B5(4)]DT[Lys(iPr)]AFN[PyrS2]F[Bta]Q-NH2 (staple 1-4, 4-11) [I-1602] showed an IC50 of 362 nM.

Ac-[αAllylPro]D[tBuAla][B5(4)]D[Phe(3-COOH)]AAFL[PyrS2][2F3MeF][Bta][F2PipNva]-NH2 (staple 1-4, 4-11) [I-1608] yielded an IC50 of 76 nM. This IC50 is about 4.8-fold lower than that of the molecule before.

As for Ac-[αAllylPro]D[tBuAla][B5(3)]D[TfeGA]AAFT[PyrS2][Phe(2-Cl)][Bta][Nva(5-morpholino)]-NH2 (staple 1-4, 4-11) [I-1609], the IC50 was 15 nM. Against the preceding molecule, the IC50 is about 5.1-fold lower.

Ac-[αAllylPro]D[tBuAla][B5(4)]D[TfeGA]AAFT[PyrS2][Phe(2-Cl)][Bta][F2PipNva]-NH2 (staple 1-4, 4-11) [I-1607]: the IC50 was 49 nM.

Regarding Ac-[αAllylPro]D[tBuAla][B5(3)]D[Phe(3-COOH)]AAFL[PyrS2″][2F3MeF][Bta][MorphAsn]-NH2 (staple 1-4, 4-11) [I-1614], the IC50 was found to be 15 nM.

For the molecule Ac-[αAllylPro]D[tBuAla][B5(4)]NTAAFT[PyrS2″][3Thi][Bta]Q-NH2 (staple 1-4, 4-11) [I-1621], the IC50 is 266 nM. This IC50 is about 18-fold higher than that of the molecule before.

With B2, the IC50 was determined as 2080 nM.

B3: the IC50 turned out to be 8450 nM.

Ac-[αAllylPro]D[tBuAla][B5(3)]D[Phe(3-COOH)]AAFL[PyrS2″][2F3MeF][Bta][MePpzAsn]-NH2 (staple 1-4, 4-11) [I-1612] had an IC50 of 10 nM.

The molecule Ac-[αAllylPro]D[tBuAla][B5(19)]DYAAF[hSer][PyrS2][3Thi][Bta]Q-NH2 (staple 1-4, 4-11) [I-1783] came in with an IC50 of 101 nM. This IC50 lies about 10-fold higher than the previous one.

For Ac-[αAllylPro]D[tBuAla][B5(3)]D[TfeGA]AAFT[PyrS2″][Phe(2-Cl)][Bta][MorphAsn]-NH2 (staple 1-4, 4-11) [I-1613], the concentration for half-maximal inhibition (IC50) turned out to be 9 nM. This IC50 lies about 11-fold lower than the previous one.

For Ac-[αAllylPro]D[tBuAla][B5(4)]NTAAF[hLeu][PyrS2″][3Thi][Bta]Q-NH2 (staple 1-4, 4-11) [I-1620], the IC50 stood at 2060 nM. This IC50 lies about 230-fold higher than the previous one.

Another assay has the same target. As to the kind of experiment: fluorescence polarization competition; 10 nM full-length beta-catenin + 10 nM 5FAM-TCF4(10-53) probe.
Target sequence in this assay (P35222 whole entry): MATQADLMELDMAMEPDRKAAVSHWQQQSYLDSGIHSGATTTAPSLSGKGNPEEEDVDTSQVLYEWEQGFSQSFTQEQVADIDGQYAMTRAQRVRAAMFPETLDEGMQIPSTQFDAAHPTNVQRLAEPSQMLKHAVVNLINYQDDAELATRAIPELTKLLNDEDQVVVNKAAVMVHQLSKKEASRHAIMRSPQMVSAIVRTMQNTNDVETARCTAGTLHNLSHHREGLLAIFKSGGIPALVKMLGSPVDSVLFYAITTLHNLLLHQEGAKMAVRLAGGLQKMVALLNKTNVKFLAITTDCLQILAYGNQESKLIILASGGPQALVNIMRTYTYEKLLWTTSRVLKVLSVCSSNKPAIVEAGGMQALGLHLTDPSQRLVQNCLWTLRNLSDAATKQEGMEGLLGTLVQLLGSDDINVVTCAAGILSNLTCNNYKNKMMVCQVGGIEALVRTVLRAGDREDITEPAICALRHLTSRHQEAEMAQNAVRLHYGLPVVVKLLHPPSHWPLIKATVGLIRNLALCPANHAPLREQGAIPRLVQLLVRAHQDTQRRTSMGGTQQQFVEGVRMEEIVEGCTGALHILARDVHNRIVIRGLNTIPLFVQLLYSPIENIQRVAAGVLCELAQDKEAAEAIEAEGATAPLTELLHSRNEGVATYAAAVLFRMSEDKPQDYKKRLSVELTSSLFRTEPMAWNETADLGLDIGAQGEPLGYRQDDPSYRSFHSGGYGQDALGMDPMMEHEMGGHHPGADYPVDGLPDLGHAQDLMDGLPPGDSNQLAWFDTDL
Take Ac-[αAllylPro]D[tBuAla][B5(25)]D[TfeGA]AAFF[PyrS2″][3Thi][Bta]S-NH2 (staple 1-4, 4-11; also: earlier-eluting HPLC staple isomer) [I-962]: the EC50 amounted to 407 nM.

As to Ac-[αAllylPro]D[tBuAla][B5]D[TfeGA]AAFS[PyrS2][3Thi][Bta]S-NH2 (staple 1-4, 4-11; also: later-eluting staple isomer composition) [I-955], the EC50 is 1200 nM.

On to Ac-[αAllylPro]D[tBuAla][B5]D[TfeGA]AAFS[PyrS2][3Thi][Bta]S-NH2 (staple 1-4, 4-11; also: earlier-eluting staple isomer composition) [I-954], for which the EC50 was determined as 900 nM.

On to Ac-[αAllylPro]D[tBuAla][B5]D[TfeGA]AAFT[PyrS2][3Thi][Bta]S-NH2 (staple 1-4, 4-11; also: earlier-eluting staple isomer composition) [I-956], for which the EC50 worked out at 1090 nM.

As to Ac-[αAllylPro]D[tBuAla][B5(25)]D[TfeGA]AAFF[PyrS2″][3Thi][Bta]S-NH2 (staple 1-4, 4-11; not fully specified) [I-963], the EC50 stood at 402 nM.

With Ac-[αAllylPro]D[tBuAla][B5]D[TfeGA]AAFT[PyrS2][3Thi][Bta]S-NH2 (staple 1-4, 4-11; also: later-eluting staple isomer composition) [I-957], the EC50 came to 1430 nM.

Consider Ac-[αAllylPro]D[tBuAla][B5]D[TfeGA]AAF[hSer][PyrS2][3Thi][Bta]S-NH2 (staple 1-4, 4-11; also: earlier-eluting staple isomer composition) [I-958], for which the EC50 was 606 nM.

Regarding Ac-[αAllylPro]D[tBuAla][B5]D[TfeGA]AAF[hSer][PyrS2][3Thi][Bta]S-NH2 (staple 1-4, 4-11; also: later-eluting staple isomer composition) [I-959], the EC50 stood at 881 nM.

The next assay shares this target. As to the kind of experiment: fluorescence polarization competition vs 5FAM-TCF4(10-53) on full-length beta-catenin.
Target sequence in this assay (P35222 2-781 limits assumed): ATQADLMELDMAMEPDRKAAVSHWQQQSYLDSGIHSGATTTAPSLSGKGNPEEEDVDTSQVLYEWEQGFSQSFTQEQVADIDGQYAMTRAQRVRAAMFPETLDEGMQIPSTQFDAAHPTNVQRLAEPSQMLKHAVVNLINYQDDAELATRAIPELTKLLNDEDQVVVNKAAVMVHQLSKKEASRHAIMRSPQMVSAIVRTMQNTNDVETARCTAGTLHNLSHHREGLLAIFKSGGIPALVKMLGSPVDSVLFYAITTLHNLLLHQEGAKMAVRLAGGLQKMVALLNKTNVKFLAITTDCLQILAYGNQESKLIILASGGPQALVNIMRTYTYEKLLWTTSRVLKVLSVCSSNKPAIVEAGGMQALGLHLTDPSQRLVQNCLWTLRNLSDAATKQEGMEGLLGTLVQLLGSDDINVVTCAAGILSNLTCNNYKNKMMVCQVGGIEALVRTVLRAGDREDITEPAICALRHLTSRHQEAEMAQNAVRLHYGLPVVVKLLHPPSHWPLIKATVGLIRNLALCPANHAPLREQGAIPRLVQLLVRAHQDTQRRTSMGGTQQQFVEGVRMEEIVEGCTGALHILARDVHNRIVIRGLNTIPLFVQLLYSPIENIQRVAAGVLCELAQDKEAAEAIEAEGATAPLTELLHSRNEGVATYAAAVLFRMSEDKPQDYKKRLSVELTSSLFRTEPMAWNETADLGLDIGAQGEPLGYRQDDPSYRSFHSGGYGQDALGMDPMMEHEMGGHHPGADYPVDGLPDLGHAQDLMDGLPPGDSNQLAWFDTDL
The molecule Ac-[αAllylPro]D[tBuAla][B5(25)]D[TfeGA]AAFF[PyrS2″][3Thi][Bta]S-NH2 (staple 1-4, 4-11; also: earlier-eluting HPLC staple isomer) [I-962] displayed an IC50 of 407 nM.

For the molecule Ac-[αAllylPro]D[tBuAla][B5]D[TfeGA]AAFS[PyrS2][3Thi][Bta]S-NH2 (staple 1-4, 4-11; also: later-eluting staple isomer composition) [I-955], the IC50 was found to be 1200 nM.

For the molecule Ac-[αAllylPro]D[tBuAla][B5]D[TfeGA]AAFS[PyrS2][3Thi][Bta]S-NH2 (staple 1-4, 4-11; also: earlier-eluting staple isomer composition) [I-954], the IC50 came out at 900 nM.

Turning to Ac-[αAllylPro]D[tBuAla][B5]D[TfeGA]AAFT[PyrS2][3Thi][Bta]S-NH2 (staple 1-4, 4-11; also: earlier-eluting staple isomer composition) [I-956], the IC50 came out at 1090 nM.

The molecule Ac-[αAllylPro]D[tBuAla][B5(25)]D[TfeGA]AAFF[PyrS2″][3Thi][Bta]S-NH2 (staple 1-4, 4-11; not fully specified) [I-963] came in with an IC50 of 402 nM.

Consider Ac-[αAllylPro]D[tBuAla][B5]D[TfeGA]AAFT[PyrS2][3Thi][Bta]S-NH2 (staple 1-4, 4-11; also: later-eluting staple isomer composition) [I-957], for which the IC50 came to 1430 nM. Compared with the last molecule, the IC50 is about 3.6-fold higher.

In turn, Ac-[αAllylPro]D[tBuAla][B5]D[TfeGA]AAF[hSer][PyrS2][3Thi][Bta]S-NH2 (staple 1-4, 4-11; also: earlier-eluting staple isomer composition) [I-958] yielded an IC50 of 606 nM.

Ac-[αAllylPro]D[tBuAla][B5]D[TfeGA]AAF[hSer][PyrS2][3Thi][Bta]S-NH2 (staple 1-4, 4-11; also: later-eluting staple isomer composition) [I-959] came in with an IC50 of 881 nM.
